Laboratory results reported in patent US20240058465A1 (SUTRO BIOPHARMA, published 2024).

Columns and labels:
human ROR1 (hROR1) [1] = biological target: T1, human ROR1 (hROR1) (human, UniProt Q01973 30-937); test: cell-based or functional assay
human ROR1 (hROR1) [2] = biological target: T1, human ROR1 (hROR1); test: flow cytometry, HCT116-hROR1 cells
[3] = biological target: T2, human ROR1 Frizzled domain (hROR1-Fz) (human, UniProt Q01973 165-305); test: SPR Biacore, IgG on anti-Fc, ROR1-Fz analyte
T2 construct: Acro Biosystems, made in HEK293
Outline: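 Test antibodies captured on an anti-Fc surface (CM5 chip), then analyte bound for 180 s with 600 s dissociation at 25° C in HBS-EP+ buffer at 50 μL/min. Human ROR1 ECD, Frizzled or Kringle domain used as analyte; regeneration with 10 mM glycine pH 2.0.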

[4] = biological target: receptor tyrosine kinase orphan receptor 1 (ROR1) on Ntera-2 cells (human, UniProt Q01973 30-937); test: cell-based or functional assay

Bmax (MFI) (human ROR1 (hROR1) [2])	Kd (human ROR1 (hROR1) [2]) [nM]	Kd [3] [nM]	koff [3] [s⁻¹]	kon [3] [M⁻¹ s⁻¹]	Binder	Mino Nb-PBD, drug-conjugated 2° antibody Cell Killing EC50 (human ROR1 (hROR1) [1]) [nM]	Mino Nb-PBD, drug-conjugated 2° antibody Cell Killing Span (human ROR1 (hROR1) [1]) [%]	cell killing EC50, NTERA-2 cells [4] [nM]	cell killing Span, NTERA-2 cells [4] [%]
15500	1.22	6.94	0.00101	146000	SRP2193-D02 (antibody, IgG1, V domains shown, His/FLAG-tagged IgG1, cell-free) VH: EVQLVESGGGLVQPGGSLRLSCAASGFNIKDYYIHWVRQAPGKGLEWVGAIDPESGSTVYADSVKGRFTISADTSKNTAYLQMNSLRAEDTAVYYCARSRWFRVLWSYVFDYWGQGTLVTVSS VL: not shown	0.0038	61		
15800	1.64	2.89	0.000331	114000	SRP2193-D05 (antibody, IgG1, V domains shown, His/FLAG-tagged IgG1, cell-free; also called Antibody 78) VH: EVQLVESGGGLVQPGGSLRLSCAASGFNINDHYIHWVRQAPGKGLEWVGAIDPNSGSTVYADSVKGRFTISADTSKNTAYLQMNSLRAEDTAVYYCARSRWFRVLWSYVFDYWGQGTLVTVSS VL: not shown	0.0042	59		
15200	0.23	1.9	0.000226	119000	SRP2193-B09 (antibody, IgG1, V domains shown, His/FLAG-tagged IgG1, cell-free; also called Antibody 75) VH: EVQLVESGGGLVQPGGSLRLSCAASGFNINNSYIHWVRQAPGKGLEWVGIIDPNNGSTAYADSVKGRFTISADTSKNTAYLQMNSLRAEDTAVYYCARSRWYRVLWSYVLDYWGQGTLVTVSS VL: not shown	0.0029	67		
15500	0.35	2.22	0.000394	178000	SRP2193-C09 (antibody, IgG1, V domains shown, His/FLAG-tagged IgG1, cell-free; also called Antibody 118) VH: EVQLVESGGGLVQPGGPLRLSCAASGFNINHSYIHWVRQAPGKGLEWVGAIDPISGSTVYADSVKGRFTISADTSKNTAYLQMNSLRAEDTAVYYCARSRWSRVLWSYVFDYWGQGTLVTVSS VL: not shown	0.0016	64		
15700	0.64	2.37	0.000273	115000	SRP2193-C11 (antibody, IgG1, V domains shown, His/FLAG-tagged IgG1, cell-free) VH: EVQLVESGGGLVQPGGSLRLSCAASGFNIADSYIHWVRQAPGKGLEWVAVIDPKSGSTNYADSVKGRFTISADTSKNTAYLQMNSLRAEDTAVYYCARSRWFRVLWSYVFDYWGQGTLVTVSS VL: not shown	0.0015	63		
18300	0.1	0.674	0.000199	295000	SRP2193-E05 (antibody, IgG1, V domains shown, His/FLAG-tagged IgG1, cell-free; also called Antibody 84) VH: EVQLVESGGGLVQPGGSLRLSCAASGFNIKRSYIHWVRQAPGKGLEWVVSIDPNGSSTHYADSVKGRFTISADTSKNTAYLQMNSLRAEDTAVYYCARSRWFRVLWSYVLDYWGQGTLVTVSS VL: not shown	0.00034	70		
15300	0.15	1.13	0.000178	158000	SRP2193-B01 (antibody, IgG1, V domains shown, His/FLAG-tagged IgG1, cell-free) VH: EVQLVESGGGLVQPGGSLRLSCAASGFNIGGYYIHWVRQAPGKGLEWVGAIDPRSGYTVYADSVKGRFTISADTSKNTAYLQMNSLRAEDTAVYYCARSRWFRVLWSFVLDYWGQGTLVTVSS VL: not shown	0.0023	66		
15200	0.46	1.59	0.000251	158000	SRP2193-B11 (antibody, IgG1, V domains shown, His/FLAG-tagged IgG1, cell-free; also called Antibody 100) VH: EVQLVESGGGLVQPGGSLRLSCAASGFNITGSYIHWVRQAPGKGLEWVGAIDPKSGFTSYADSAKGRFTISADTSKNTAYLQMNSLRAEDTAVYYCARSRWFRVLWSFVFDYWGQGTLVTVSS VL: not shown	0.0013	66		
14600	1.7	5.31	0.000487	91700	SRP2193-B06 (antibody, IgG1, V domains shown, His/FLAG-tagged IgG1, cell-free) VH: EVQLVESGGGLVQPGGSLRLSCAASGFNIDGYYIHWVRQAPGKGLEWVAAIDPHPGSTVYADSVKGRFTISADTSKNTAYLQMNSLRAEDTAVYYCARSRWFRVLWTYVFDYWGQGTLVTVSS VL: not shown	0.0027	65		
15800	0.85	6.2	0.00173	278000	SRP2193-C02 (antibody, IgG1, V domains shown, His/FLAG-tagged IgG1, cell-free; also called Antibody 81) VH: EVQLVESGGGLVQPGGSLRLSCAASGFNISDYYIHWVRQAPGKGLEWVGTIDPQSGSTVYADSVKGRFTISADTSENTAYLQMNSLRAEDTAVYYCARSRWFRVLWSFVFDYWGQGTLVTVSS VL: not shown	0.0034	62		
14700	5.82	2.23	0.000246	111000	SRP2193-E06 (antibody, IgG1, V domains shown, His/FLAG-tagged IgG1, cell-free; also called Antibody 73) VH: EVQLVESGGGLVRPGGSLRLSCAASGFNIDDYYIHWVRQAPGKGLEWVGVIDPKNGSTVYADSVKGRSTISADTPKSTAYLQMNSLRAEDTAVYYCARSRWFRVLWSYVFDYWGQGTLVTVSS VL: not shown	0.0025	63		
15000	0.7	2.81	0.000292	104000	SRP2193-D04 (antibody, IgG1, V domains shown, His/FLAG-tagged IgG1, cell-free; also called Antibody 71) VH: EVQLVESGGGLVQPGGSLRLSCAASGFNINGFYIHWVRQAPGKGLEWVGAIDPNGGSTVYADSVKGRFTISADTSKNTAYLQMNSLRAEDTAVYYCARSRWYRVLWSYAFDYWGQGTLVTVSS VL: not shown	0.0045	65		
14300	0.28	101	0.6	5.94e+06	SRP2193-D06 (antibody, IgG1, V domains shown, His/FLAG-tagged IgG1, cell-free; also called Antibody 80) VH: EVQLVESGGGLVQPGGSLRLSCAASGFNIRDYYIHWVRQAPGKGLEWVRAIDPHSGSTVYADSVKGRFTISADTSKNTAYLQMNSLRAEDTAVYYCARSRWFRVLWSYVFDYWGQGTLVTVSS VL: not shown	0.0057	68		
					Conjugate 28 (A05 x B04-F404-LP8 biparatopic) (bispecific antibody, human IgG1, kappa, pAMF at F404 (EU), linked to LP8) heavy 1: MEVQLVESGGGLVQPGGSLRLSCAASGFNIKEYHIHWVRQAPGKGLEWVGYISPNSGSTYYADSVKGRFTISADTSKNTAYLQMNSLRAEDTAVYYCARDHRRYVRPFDYWGQGTLVTVSSASTKGPSVFPLAPSSKSTSGGTAALGCLVKDYFPEPVTVSWNSGALTSGVHTFPAVLQSSGLYSLSSVVTVPSSSLGTQTYICNVNHKPSNTKVDKKVEPKSCDKTHTCPPCPAPELLGGPSVFLFPPKPKDTLMISRTPEVTCVVVDVSHEDPEVKFNWYVDGVEVHNAKTKPREEQYNSTYRVVSVLTVLHQDWLNGKEYKCKVSNKALPAPIEKTISKAKGQPREPQVYTLPPSREEMTKNQVSLWCLVKGFYPSDIAVEWESNGQPENNYKTTPPVLDSDGSFLYSKLTVDKSRWQQGNVFSCSVMHEALHNHYTQKSLSLSPGK heavy 2: MEVQLVESGGGLVQPGGSLRLSCAASGFNIAGYAIHWVRQAPGKGLEWVGLITPTPGTSNYADSVKGRFTISVDTSKNTAYLQMNSLRAEDTAAYYCARDYRGVYLYSFYYDYWGQGTLVTVSSASTKGPSVFPLAPSSKSTSGGTAALGCLVKDYFPEPVTVSWNSGALTSGVHTFPAVLQSSGLYSLSSVVTVPSSSLGTQTYICNVNHKPSNTKVDKKVEPKSCDKTHTCPPCPAPELLGGPSVFLFPPKPKDTLMISRTPEVTCVVVDVSHEDPEVKFNWYVDGVEVHNAKTKPREEQYNSTYRVVSVLTVLHQDWLNGKEYKCKVSNKALPAPIEKTISKAKGQPREPQVYTLPPSREEMTKNQVSLSCAVKGFYPSDIAVEWESNGQPENNYKTTPPVLDSDGSFLVSKLTVDKSRWQQGNVFSCSVMHEALHNHYTQKSLSLSPGK light: not shown			0.028	88
					Conjugate 29 (A05 x C06-F404-LP8 biparatopic) (bispecific antibody, human IgG1, kappa, pAMF at F404 (EU), linked to LP8) heavy 1: MEVQLVESGGGLVQPGGSLRLSCAASGFNIKEYHIHWVRQAPGKGLEWVGYISPNSGSTYYADSVKGRFTISADTSKNTAYLQMNSLRAEDTAVYYCARDHRRYVRPFDYWGQGTLVTVSSASTKGPSVFPLAPSSKSTSGGTAALGCLVKDYFPEPVTVSWNSGALTSGVHTFPAVLQSSGLYSLSSVVTVPSSSLGTQTYICNVNHKPSNTKVDKKVEPKSCDKTHTCPPCPAPELLGGPSVFLFPPKPKDTLMISRTPEVTCVVVDVSHEDPEVKFNWYVDGVEVHNAKTKPREEQYNSTYRVVSVLTVLHQDWLNGKEYKCKVSNKALPAPIEKTISKAKGQPREPQVYTLPPSREEMTKNQVSLWCLVKGFYPSDIAVEWESNGQPENNYKTTPPVLDSDGSFLYSKLTVDKSRWQQGNVFSCSVMHEALHNHYTQKSLSLSPGK heavy 2: MEVQLVESGGGLVQPGGSLRLSCAASGFNITSYGIHWVRQAPGKGLEWVGWIAPNSGNTYYADSVKGRFTISADTSKNTAYLQMNSLRAEDTAVYYCARDIVSTYSYYYLMDYWGQGTLVTVSSASTKGPSVFPLAPSSKSTSGGTAALGCLVKDYFPEPVTVSWNSGALTSGVHTFPAVLQSSGLYSLSSVVTVPSSSLGTQTYICNVNHKPSNTKVDKKVEPKSCDKTHTCPPCPAPELLGGPSVFLFPPKPKDTLMISRTPEVTCVVVDVSHEDPEVKFNWYVDGVEVHNAKTKPREEQYNSTYRVVSVLTVLHQDWLNGKEYKCKVSNKALPAPIEKTISKAKGQPREPQVYTLPPSREEMTKNQVSLSCAVKGFYPSDIAVEWESNGQPENNYKTTPPVLDSDGSFLVSKLTVDKSRWQQGNVFSCSVMHEALHNHYTQKSLSLSPGK light: not shown			0.027	88
